Measurements from paper PMC12228687, “Harnessing protein language model for structure-based discovery of highly efficient and robust PET hydrolases” (Nature Communications, 2025).

Experiments:
purified protein [1] = substrate: CCCC(=O)Oc1ccc([N+](=O)[O-])cc1; assay: purified protein; type: biochemical, unidentified prokaryotic organism; conditions: 10 mM potassium phosphate pH 8.0 (stock buffer), 50 °C, 3 min, 0.5 µg/mL enzyme, 0.2-1.8 mM pNPB
purified protein [2] = substrate: CCCC(=O)Oc1ccc([N+](=O)[O-])cc1; assay: purified protein; type: biochemical, Kibdelosporangium banguiense; conditions: 10 mM potassium phosphate pH 8.0 (stock buffer), 50 °C, 3 min, 0.5 µg/mL enzyme, 0.2-1.8 mM pNPB

Protein | Km (purified protein [1]) [mM] | kcat (purified protein [1]) [s⁻¹] | kcat/Km (purified protein [1]) [M⁻¹ s⁻¹] | Km (purified protein [2]) [mM] | kcat (purified protein [2]) [s⁻¹] | kcat/Km (purified protein [2]) [M⁻¹ s⁻¹]
LCC (unidentified prokaryotic organism) (protein, wild-type LCC (LCC-ICCG is a separate variant)) QSNPYQRGPNPTRSALTADGPFSVATYTVSRLSVSGFGGGVIYYPTGTSLTFGGIAMSPGYTADASSLAWLGRRLASHGFVVLVINTNSRFDYPDSRASQLSAALNYLRTSSPSAVRARLDANRLAVAGHSMGGGGTLRIAEQNPSLKAAVPLTPWHTDKTFNTSVPVLIVGAEADTVAPVSQHAIPFYQNLPSTTPKVYVELDNASHFAPNSNNAAISVYTISWMKLWVDNDTRYRQFLCNVNDPALSDFRTNNRHCQ | 1.053 ± 0.289 | 0.186 ± 0.021 | 208 ± 17 |  |  | 
KbPETase (APET-14) (Kibdelosporangium banguiense) (protein, predicted signal peptide (SignalP) removed; N-terminal His-tag, pET-28a(+) NdeI/NotI; E. coli BL21(DE3); Ni-NTA purified) DEIGQAPTAANITGDGSFSTSSSAIFGQSGFGGGTAYYPNTAGKYPVVAFAPGFLSDWNALNWLGPRVASWGFVVVGVNTNTPFDFPDARGDQLLAALNWAVNSAPAAVRDKADGSRRGVSGWSMGGGGTLEALAKDTTGTVKAGVPLAPWHTNKTWSKVTEPVFIIGGQNDSVAAPASHAIPFYNSLGGPKSYLERAGADHFFPTKSNGTVSRAVVSFFKRHVSADTRFTPFLCGFSGLDVSNFRSNSC |  |  |  | 1.04 ± 0.201 | 0.27 ± 0.021 | 263 ± 31
